Article PMC5027577

Assays:
[1] = target: T1, TGF-β type I receptor (TRI) (human (endogenous in HeLa)), P36897; assay: live-cell single-molecule TIRFM tracking (membrane on-times); EGFP-Smad3 or EGFP-M-Smad3 at low expression in living HeLa cells treated with 10 ng/ml TGF-β1 for 15 min at 37 °C; 10 Hz; cumulative histograms of on-times fitted with a single exponential; conditions: remark: other sources report otherwise
T1 chain: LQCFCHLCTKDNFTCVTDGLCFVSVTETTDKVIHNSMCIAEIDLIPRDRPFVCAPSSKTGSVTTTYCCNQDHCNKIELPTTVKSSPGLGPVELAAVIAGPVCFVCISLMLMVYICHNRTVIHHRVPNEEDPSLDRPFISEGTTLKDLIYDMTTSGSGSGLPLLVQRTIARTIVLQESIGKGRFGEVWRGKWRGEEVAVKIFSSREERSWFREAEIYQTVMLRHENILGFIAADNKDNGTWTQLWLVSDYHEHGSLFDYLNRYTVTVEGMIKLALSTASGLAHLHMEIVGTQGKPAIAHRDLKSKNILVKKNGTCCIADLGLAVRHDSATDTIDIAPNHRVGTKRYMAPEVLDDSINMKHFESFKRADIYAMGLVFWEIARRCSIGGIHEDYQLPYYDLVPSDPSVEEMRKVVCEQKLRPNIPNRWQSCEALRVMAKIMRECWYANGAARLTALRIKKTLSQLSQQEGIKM

[2] = target: T1, TGF-β type I receptor (TRI) (human …); assay: live-cell single-molecule TIRFM tracking (membrane on-times); EGFP-Smad3 or EGFP-M-Smad3 at low expression in living HeLa cells, unstimulated; 10 Hz; cumulative histograms of on-times fitted with a single exponential; conditions: remark: other sources report otherwise

- koff [1]: 1.67 s⁻¹
- time constant of membrane on-times (τs) [1]: 0.6 s
- koff [2]: 1.96 s⁻¹
- time constant of membrane on-times (τu) [2]: 0.51 s
B1: EGFP-Smad3, P84022 1-425 (natural protein)
chain: MSSILPFTPPIVKRLLGWKKGEQNGQEEKWCEKAVKSLVKKLKKTGQLDELEKAITTQNVNTKCITIPRSLDGRLQVSHRKGLPHVIYCRLWRWPDLHSHHELRAMELCEFAFNMKKDEVCVNPYHYQRVETPVLPPVLVPRHTEIPAEFPPLDDYSHSIPENTNFPAGIEPQSNIPETPPPGYLSEDGETSDHQMNHSMDAGSPNLSPNPMSPAHNNLDLQPVTYCEPAFWCSISYYELNQRVGETFHASQPSMTVDGFTDPSNSERFCLGLLSNVNRNAAVELTRRHIGRGVRLYYIGGEVFAECLSDSAIFVQSPNCNQRYGWHPATVCKIPPGCNLKIFNNQEFAALLAQSVNQGFEAVYQLTRMCTIRMSFVKGWGAEYRRQTVTSTPCWIELHLNGPLQWLDKVLTQMGSPSIRCSSVS
